For one series, the target named is T1, KaiA (Synechococcus elongatus PCC 7942, UniProt Q79PF6 1-284).
T1 construct: KaiA, circadian clock protein of Synechococcus elongatus PCC 7942; source: expressed and purified as previously described (Phong et al., 2013), anion exchange on HiTrap Q
T1 sequence (looked up): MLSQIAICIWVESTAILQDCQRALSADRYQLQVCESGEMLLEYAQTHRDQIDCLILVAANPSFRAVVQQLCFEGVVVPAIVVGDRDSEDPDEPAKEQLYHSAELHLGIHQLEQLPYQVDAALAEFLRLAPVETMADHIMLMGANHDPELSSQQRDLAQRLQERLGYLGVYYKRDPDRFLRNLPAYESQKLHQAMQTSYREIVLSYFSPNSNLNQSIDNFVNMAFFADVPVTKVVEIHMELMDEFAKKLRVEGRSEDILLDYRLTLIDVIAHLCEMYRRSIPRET
Kind of series: co-IP; immunoprecipitation of KaiB-FLAG from an in vitro clock reaction of purified KaiA, KaiB-FLAG and KaiC (20 mM Tris-HCl pH 8, 150 mM NaCl, 5 mM MgCl2, 0.5 mM EDTA, 10% glycerol), time course; KaiA left in the supernatant read by SDS-PAGE (SYPRO Ruby) against 1.5 uM GFP as internal standard. The settings on record: both partners purified.

Series [1] deals with the molecule itself. Kind of series: SEC; size-exclusion chromatography on a Superdex 75 16/60 prep grade column, last step of the purification of the 15N-labelled KaiA domains.

B1: KaiB-FLAG (natural protein, Synechococcus elongatus PCC 7942, UniProt Q79PF5 1-102, looked up)
chain: MSPRKTYILKLYVAGNTPNSVRALKTLKNILEVEFQGVYALKVIDVLKNPQLAEEDKILATPTLAKVLPLPVRRIIGDLSDREKVLIGLDLLYGELQDSDDF
notes: KaiB, circadian clock protein of Synechococcus elongatus PCC 7942; also called FLAG-tagged KaiB; source: expressed and purified as previously described (Phong et al., 2013), anion exchange on HiTrap Q
Regarding B1, the binding result with KaiA is on record as “binds”.

B2: C-terminal domain of KaiA (residues 181-284) (domain or fragment, Synechococcus elongatus PCC 7942, UniProt Q79PF6 181-284, looked up)
chain: NLPAYESQKLHQAMQTSYREIVLSYFSPNSNLNQSIDNFVNMAFFADVPVTKVVEIHMELMDEFAKKLRVEGRSEDILLDYRLTLIDVIAHLCEMYRRSIPRET
notes: KaiA, Synechococcus elongatus PCC 7942, C-terminal domain, residues 181-284; U-[15N] labelled, grown in deuterated water; also called C-terminal KaiA; C-terminal fragment of KaiA; source: E. coli BL21(DE3), M9 medium with 15N-NH4Cl in 98% D2O, purified (Ni-NTA, SEC on Superdex 75)
B2: the “stoichiometry N” value in series [1] amounted to 2.
